Test results taken from article PMC4930699 (Cancer research, 2016).

Target: the molecule itself
Assay: cross-linking

B1: Flag-PKM2 K305R (enzyme)
chain: not shown
Does B1 bind?
Result: binds
